{"source": "paper PMC12225977", "about": "(PLOS Computational Biology, 2025)", "proteins": {"B1": {"name": "Francisella tularensis dihydrolipoyl dehydrogenase (IPD) (enzyme)", "chain": "MSDIKTQVVVLGSGPGGYSAAFRAADLGLEVVLVERYAEIGGVCLNVGCIPSKAMLHIAKVINEARHLESLGIIEMGGLKINRENLLKYKDGVIGKLTGGLKGMAQMRKVKIVQGYGKFTSDKELAVEAADGKVTKIAFDNCIIAAGSSVIKLPFVPEDDRIIDSTGALEMKEIPETMLVVGGGIIGLEMAQVYSELGTKITVVEFADQLMNGVDKDLVKAYQKVNSRYDVRLKTAVTAMEAKEDGIYVTMEGDHPAKDERFDRVLMAIGRKPNGKLIDAEKAGVKVDERGFIPVDKQLRTNVPHIFAIGDIVGQPMLAHKAVPEGRTAAEVISGLNHSFDPLVIPSVAYTDPEVAWVGETETSAKAKGIKYEKGVFPWAASGRSLSIDRSEGMTKILFDENHKIIGASIVGTHAGELISEAAIAIEMGCDAEDIALTVHPHPTLSESLMMATEVYEGTATDLPPQKKKK", "notes": "also called Francisella IPD; MGH6-IPD"}}, "biological_target": "the molecule itself", "assay": "native MS"}
{"protein": "B1", "values": [{"measurement": "stoichiometry N", "result": 2}]}
